Test results from the supplement of paper PMC7125110.
± gives the standard error. For some assays here: Fewer inactive variants are shown than the library holds.

B1: glmS ribozyme (parent)
chain: AUAAAAGCGCCAGAACUACAGAAAUGUAGUUGACGAGGAGGAGGUUUAUCGAAUUUUCGGCGGAUGCCUCCAAA

Experiments:
Details in all cases: with glucosamine-6-phosphate
glucosamine-6-phosphate [1] = variants of: B1; test: kcat; higher = faster cleavage; RNA array
Procedure, shortened: (§1)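 kobs was derived by fitting per-tile medians to one- or two-exponential decays after normalising signals to baseline and to non-cleaving reference variants. Those signals came from barcoded ribozyme variants transcribed in situ by E. coli RNA polymerase on sequenced MiSeq chips, followed through a hybridised Cy3 probe at 37 °C and imaged over ~14 h. Glucosamine-6-phosphate (40 μM to 10 mM) in HEPES/KCl/Mg(OAc)2 buffer was flowed in. Weighted Michaelis–Menten fits across concentrations then gave kcat and KM.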

glucosamine-6-phosphate [2] = variants of: B1; test: KM; higher = weaker cofactor use; RNA array
Procedure, shortened: as §1

glucosamine-6-phosphate [3] = variants of: B1; test: self-cleavage kobs at 2500 uM GlcN6P; higher = faster cleavage; RNA array
Procedure, shortened: as §1

glucosamine-6-phosphate [4] = variants of: B1; test: self-cleavage kobs at 10000 uM GlcN6P; higher = faster cleavage; RNA array
Procedure, shortened: as §1

glucosamine-6-phosphate [5] = variants of: B1; test: self-cleavage kobs at 160 uM GlcN6P; higher = faster cleavage; RNA array
Procedure, shortened: as §1

glucosamine-6-phosphate [6] = variants of: B1; test: self-cleavage kobs at 640 uM GlcN6P; higher = faster cleavage; RNA array
Procedure, shortened: as §1

glucosamine-6-phosphate [7] = variants of: B1; test: self-cleavage kobs at 40 uM GlcN6P; higher = faster cleavage; RNA array
Procedure, shortened: as §1

Variant	kcat (glucosamine-6-phosphate [1]) [s⁻¹]	KM (glucosamine-6-phosphate [2]) [µM]	self-cleavage kobs at 2500 uM GlcN6P (glucosamine-6-phosphate [3]) [s⁻¹]	self-cleavage kobs at 10000 uM GlcN6P (glucosamine-6-phosphate [4]) [s⁻¹]	self-cleavage kobs at 160 uM GlcN6P (glucosamine-6-phosphate [5]) [s⁻¹]	self-cleavage kobs at 640 uM GlcN6P (glucosamine-6-phosphate [6]) [s⁻¹]	self-cleavage kobs at 40 uM GlcN6P (glucosamine-6-phosphate [7]) [s⁻¹]
C50U C61G	1.39e-05 ± 3.3e-06						
G13A A39C	0.000118 ± 1.9e-05	3740 ± 1200	4.55e-05 ± 7.4e-06	8.77e-05 ± 1.6e-05			
C16A U31G C70U	0.00025 ± 1.3e-05	351 ± 54	0.000242 ± 6.1e-05	0.000235 ± 4.9e-05	7.99e-05 ± 2.2e-05	0.000157 ± 3e-05	
U46A C61A	1.2e-05 ± 3e-07	1800 ± 100					
A6U C67G	1.15e-05 ± 1.2e-06						
U45C G66U	0.000814 ± 9.5e-05	2830 ± 630	0.000326 ± 8.3e-05	0.000653 ± 8.2e-05	4.7e-05 ± 1.5e-05	0.000151 ± 3.2e-05	
C50A U69G	5.56e-05 ± 1.8e-05		7.89e-05 ± 1.3e-05		6.06e-05 ± 1.3e-05	7.86e-05 ± 1.3e-05	2.65e-05 ± 1.3e-05
A12C C58G	0.0002 ± 2.6e-05	1730 ± 640	0.000106 ± 1.8e-05	0.000177 ± 2.2e-05		6.55e-05 ± 1.8e-05	
G41U A42U	0.00136 ± 0.00056		0.00119 ± 0.00014	0.00108 ± 0.00015	0.000106 ± 1.9e-05	0.000464 ± 5.5e-05	9.43e-05 ± 1.1e-05
A33U C58A	< 1e-05				< 1e-05	< 1e-05	
C58U C71G	< 1e-05						
A52G C68A C70U	1.69e-05 ± 3.4e-06						
C16U G32C A52G	4.34e-05 ± 1.5e-06	3600 ± 420		3.19e-05 ± 1.3e-05			
C50G U56G	4.44e-05 ± 8.9e-06		5.17e-05 ± 2.1e-05		4.35e-05 ± 1.5e-05		
U45C C67U C68A	4.01e-05 ± 3.3e-06	533 ± 230					
A14G C61U	3.27e-05 ± 1.8e-06	592 ± 240	2.91e-05 ± 9.3e-06	3.02e-05 ± 6.3e-06			
G37A G40C	0.000207 ± 4.1e-05	2180 ± 880	0.00015 ± 3.5e-05	0.000157 ± 3.4e-05		4.22e-05 ± 1.3e-05	
G43A C71U	< 1e-05						< 1e-05
A12G A14U	0.000731 ± 0.0002	5700 ± 2200	0.000195 ± 1.9e-05	0.000524 ± 6.4e-05		8.27e-05 ± 8e-06	
G63C C71G	< 1e-05	222 ± 79		< 1e-05	< 1e-05	< 1e-05	< 1e-05
